Results from the supplement of paper PMC5998384.

Experiments:
HeLa Kyoto [1] = assay: solubility in G1/S (NP-40 vs SDS abundance) (log2 ratio); higher = more soluble; conditions: cell cycle stage: G1/S
HeLa Kyoto [2] = assay: solubility change mitosis vs G1/S (difference of NP-40 vs SDS log2 ratios) (log2 ratio difference); higher = more soluble in mitosis
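For solubility change mitosis vs G1/S (difference of NP-40 vs SDS log2 ratios) in this document: synchronized HeLa Kyoto cells (double thymidine block for G1/S, nocodazole release for mitosis), protein amounts in NP-40 versus SDS lysates quantified by mass spectrometry, three biological replicates.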
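For solubility in G1/S (NP-40 vs SDS abundance) in this document: HeLa Kyoto cells arrested at G1/S by double thymidine block, proteins quantified by TMT10plex mass spectrometry in mild NP-40 versus SDS extracts, three biological replicates.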

Row | Sequence | solubility in G1/S (log2) (HeLa Kyoto [1]) | solubility change mitosis (log2) (HeLa Kyoto [2])
1 | MIATPLKHSRIYLPPEASSQRRNLPMDAIFFDSIPSGTLTPVKDLVKYQNSSLKLNDHKKNQFLKMTTFNNKNIFQSTMLTEATTSNSSLDISAIKPNKDGLKNKANYESPGKIFLRMKEKVLRDKQEQPSRNSSLLEPQKSGNNETFTPNRVEKKKLQHTYLCEEKENNKSFQSDDSSLRASVQGVPLESSNNDIFLPVKQKIQCQQEKKAPLHNLTYELPTLNQEQENFLAVEARNKTLTRAQLAKQIFHSKESIVATTKSKKDTFVLESVDSADEQFQNTNAETLSTNCIPIKNGSLLMVSDSERTTEGTSQQKVKEGNGKTVPGETGLPGSMKDTCKIVLATPRLHITIPRRSKRNISKLSPPRIFQTVTNGLKKNQVVQLQEWMIKSINNNTAICVEGKLIDVTNIYWHSNVIIERIEHNKLRTISGNVYILKGMIDQISMKEAGYPNYLIRKFMFGFPENWKEHIDNFLEQLRAGEKNREKTKQKQKTGRSVRDIRKSMKNDARENQTDTAQRATTTYDFDCDNLELKSNKHSESPGATELNMCHSNCQNKPTLRFPDDQVNNTIQNGGGDDLSNQELIGKKEYKMSSKKLKIGERTNERIIKSQKQETTEELDVSIDILTSREQFFSDEERKYMAINQKKAYILVTPLKSRKVIEQRCMRYNLSAGTIKAVTDFVIPECQKKSPISKSMGTLENTFEGHKSKNKEDCDERDLLTVNRKIKISNLEKEQMLTSDFKKNTRLLPKLKKIENQVAMSFYKHQSSPDLSSEESETEKEIKRKAEVKKTKAGNTKEAVVHLRKSTRNTSNIPVILEPETEESENEFYIKQKKARPSVKETLQKSGVRKEFPITEAVGSDKTNRHPLECLPGLIQDKEWNEKELQKLHCAFASLPKHKPGFWSEVAAAVGSRSPEECQRKYMENPRGKGSQKHVTKKKPANSKGQNGKRGDADQKQTIKITAKVGTLKRKQQMREFLEQLPKDDHDDFFSTTPLQHQRILLPSFQDSEDDDDILPNMDKNPTTPSSVIFPLVKTPQCQHVSPGMLGSINRNDCDKYVFRMQKYHKSNGGIVWGNIKKKLVETDFSTPTPRRKTPFNTDLGENSGIGKLFTNAVESLDEEEKDYYFSNSDSA [MIS18BP1] | -1.77 | 1.22
2 | MIVFGWAVFLASRSLGQGLLLTLEEHIAHFLGTGGAATTMGNSCICRDDSGTDDSVDTQQQQAENSAVPTADTRSQPRDPVRPPRRGRGPHEPRRKKQNVDGLVLDTLAVIRTLVDNDQEPPYSMITLHEMAETDEGWLDVVQSLIRVIPLEDPLGPAVITLLLDECPLPTKDALQKLTEILNLNGEVACQDSSHPAKHRNTSAVLGCLAEKLAGPASIGLLSPGILEYLLQCLKLQSHPTVMLFALIALEKFAQTSENKLTISESSISDRLVTLESWANDPDYLKRQVGFCAQWSLDNLFLKEGRQLTYEKVNLSSIRAMLNSNDVSEYLKISPHGLEARCDASSFESVRCTFCVDAGVWYYEVTVVTSGVMQIGWATRDSKFLNHEGYGIGDDEYSCAYDGCRQLIWYNARSKPHIHPCWKEGDTVGFLLDLNEKQMIFFLNGNQLPPEKQVFSSTVSGFFAAASFMSYQQCEFNFGAKPFKYPPSMKFSTFNDYAFLTAEEKIILPRHRRLALLKQVSIRENCCSLCCDEVADTQLKPCGHSDLCMDCALQLETCPLCRKEIVSRIRQISHIS [RSPRY1] | -0.235 | -0.00113
3 | MKALIVLGLVLLSVTVQGKVFERCELARTLKRLGMDGYRGISLANWMCLAKWESGYNTRATNYNAGDRSTDYGIFQINSRYWCNDGKTPGAVNACHLSCSALLQDNIADAVACAKRVVRDPQGIRAWVAWRNRCQNRDVRQYVQGCGV [LYZ] | -1.78 | 2.19
4 | MKEMSANTVLDSQRQQKHYGITSPISLASPKEIDHIYTQKLIDAMKPFGVFEDEEELNHRLVVLGKLNNLVKEWISDVSESKNLPPSVVATVGGKIFTFGSYRLGVHTKGADIDALCVAPRHVERSDFFQSFFEKLKHQDGIRNLRAVEDAFVPVIKFEFDGIEIDLVFARLAIQTISDNLDLRDDSRLRSLDIRCIRSLNGCRVTDEILHLVPNKETFRLTLRAVKLWAKRRGIYSNMLGFLGGVSWAMLVARTCQLYPNAAASTLVHKFFLVFSKWEWPNPVLLKQPEESNLNLPVWDPRVNPSDRYHLMPIITPAYPQQNSTYNVSTSTRTVMVEEFKQGLAVTDEILQGKSDWSKLLEPPNFFQKYRHYIVLTASASTEENHLEWVGLVESKIRVLVGNLERNEFITLAHVNPQSFPGNKEHHKDNNYVSMWFLGIIFRRVENAESVNIDLTYDIQSFTDTVYRQANNINMLKEGMKIEATHVKKKQLHHYLPAEILQKKKKQSLSDVNRSSGGLQSKRLSLDSSCLDSSRDTDNGTPFNSPASKSDSPSVGETERNSAEPAAVIVEKPLSVPPAQGLSIPVIGAKVDSTVKTVSPPTVCTIPTVVGRNVIPRITTPHNPAQGQPHLNGMSNITKTVTPKRSHSPSIDGTPKRLKDVEKFIRLESTFKDPRTAEERKRKSVDAIGGESMPIPTIDTSRKKRLPSKELPDSSSPVPANNIRVIKNSIRLTLNR [PAPOLG] | -0.0339 | -0.0762
5 | MKFAYRFSNLLGTVYRRGNLNFTCDGNSVISPVGNRVTVFDLKNNKSDTLPLATRYNVKCVGLSPDGRLAIIVDEGGDALLVSLVCRSVLHHFHFKGSVHSVSFSPDGRKFVVTKGNIAQMYHAPGKKREFNAFVLDKTYFGPYDETTCIDWTDDSRCFVVGSKDMSTWVFGAERWDNLIYYALGGHKDAIVACFFESNSLDLYSLSQDGVLCMWQCDTPPEGLRLKPPAGWKADLLQREEEEEEEEDQEGDRETTIRGKATPAEEEKTGKVKYSRLAKYFFNKEGDFNNLTAAAFHKKSHLLVTGFASGIFHLHELPEFNLIHSLSISDQSIASVAINSSGDWIAFGCSGLGQLLVWEWQSESYVLKQQGHFNSMVALAYSPDGQYIVTGGDDGKVKVWNTLSGFCFVTFTEHSSGVTGVTFTATGYVVVTSSMDGTVRAFDLHRYRNFRTFTSPRPTQFSCVAVDASGEIVSAGAQDSFEIFVWSMQTGRLLDVLSGHEGPISGLCFNPMKSVLASASWDKTVRLWDMFDSWRTKETLALTSDALAVTFRPDGAELAVATLNSQITFWDPENAVQTGSIEGRHDLKTGRKELDKITAKHAAKGKAFTALCYSADGHSILAGGMSKFVCIYHVREQILMKRFEISCNLSLDAMEEFLNRRKMTEFGNLALIDQDAGQEDGVAIPLPGVRKGDMSSRHFKPEIRVTSLRFSPTGRCWAATTTEGLLIYSLDTRVLFDPFELDTSVTPGRVREALRQQDFTRAILMALRLNESKLVQEALEAVPRGEIEVVTSSLPELYVEKVLEFLASSFEVSRHLEFYLLWTHKLLMLHGQKLKSRAGTLLPVIQFLQKSIQRHLDDLSKLCSWNHYNMQYALAVSKQRGTKRSLDPLGSEEEAEASEDDSLHLLGGGGRDSEEEMLA [PWP2] | -1.72 | 0.632
6 | MKGGNADSWQREKLASMESPEEPGASMDENYFVNYTFKDRSHSGRVAQGIMKLCLEEELFADVTISVEGREFQLHRLVLSAQSCFFRSMFTSNLKEAHNRVIVLQDVSESVFQLLVDYIYHGTVKLRAEELQEIYEVSDMYQLTSLFEECSRFLARTVQVGNCLQVMWLADRHSDPELYTAAKHCAKTHLAQLQNTEEFLHLPHRLLTDIISDGVPCSQNPTEAIEAWINFNKEEREAFAESLRTSLKEIGENVHIYLIGKESSRTHSLAVSLHCAEDDSISVSGQNSLCHQITAACKHGGDLYVVGGSIPRRMWKCNNATVDWEWCAPLPRDRLQHTLVSVPGKDAIYSLGGKTLQDTLSNAVIYYRVGDNVWTETTQLEVAVSGAAGANLNGIIYLLGGEENDLDFFTKPSRLIQCFDTETDKCHVKPYVLPFAGRMHAAVHKDLVFIVAEGDSLVCYNPLLDSFTRLCLPEAWSSAPSLWKIASCNGSIYVFRDRYKKGDANTYKLDPATSAVTVTRGIKVLLTNLQFVLA [KBTBD4] | -0.0904 | -0.161
7 | MKLHCEVEVISRHLPALGLRNRGKGVRAVLSLCQQTSRSQPPVRAFLLISTLKDKRGTRYELRENIEQFFTKFVDEGKATVRLKEPPVDICLSKAISSSLKGFLSAMRLAHRGCNVDTPVSTLTPVKTSEFENFKTKMVITSKKDYPLSKNFPYSLEHLQTSYCGLVRVDMRMLCLKSLRKLDLSHNHIKKLPATIGDLIHLQELNLNDNHLESFSVALCHSTLQKSLRSLDLSKNKIKALPVQFCQLQELKNLKLDDNELIQFPCKIGQLINLRFLSAARNKLPFLPSEFRNLSLEYLDLFGNTFEQPKVLPVIKLQAPLTLLESSARTILHNRIPYGSHIIPFHLCQDLDTAKICVCGRFCLNSFIQGTTTMNLHSVAHTVVLVDNLGGTEAPIISYFCSLGCYVNSSDMLK [PPIL5] | -0.0487 | -0.0159
8 | MKRHRPVSSSDSSDESPSTSFTSGSMYRIKSKIPNEHKKPAEVFRKDLISAMKLPDSHHINPDSYYLFADTWKEEWEKGVQVPASPDTVPQPSLRIIAEKVKDVLFIRPRKYIHCSSPDTTEPGYINIMELAASVCRYDLDDMDIFWLQELNEDLAEMGCGPVDENLMEKTVEVLERHCHENMNHAIETEEGLGIEYDEDVICDVCRSPDSEEGNDMVFCDKCNVCVHQACYGILKVPEGSWLCRSCVLGIYPQCVLCPKKGGALKTTKTGTKWAHVSCALWIPEVSIACPERMEPITKISHIPPSRWALVCNLCKLKTGACIQCSIKSCITAFHVTCAFEHGLEMKTILDEGDEVKFKSYCLKHSQNRQKLGEAEYPHHRAKEQSQAKSEKTSLRAQKLRELEEEFYSLVRVEDVAAELGMPTLAVDFIYNYWKLKRKSNFNKPLFPPKEDEENGLVQPKEESIHTRMRMFMHLRQDLERVRNLCYMISRREKLKLSHNKIQEQIFGLQVQLLNQEIDAGLPLTNALENSLFYPPPRITLKLKMPKSTPEDHRNSSTETDQQPHSPDSSSSVHSIRNMQVPQESLEMRTKSYPRYPLESKNNRLLASLSHSRSEAKESSPAWRTPSSECYHGQSLGKPLVLQAALHGQSSIGNGKSQPNSKFAKSNGLEGSWSGNVTQKDSSSEMFCDQEPVFSPHLVSQGSFRKSTVEHFSRSFKETTNRWVKNTEDLQCYVKPTKNMSPKEQFWGRQVLRRSAGRAPYQENDGYCPDLELSDSEAESDGNKEKVRVRKDSSDRENPPHDSRRDCHGKSKTHPLSHSSMQR [JADE3] | -0.949 | 0.383
9 | MKSSGLFPFLVLLALGTLAPWAVEGSGKSFKAGVCPPKKSAQCLRYKKPECQSDWQCPGKKRCCPDTCGIKCLDPVDTPNPTRRKPGKCPVTYGQCLMLNPPNFCEMDGQCKRDLKCCMGMCGKSCVSPVKA [SLPI] | -0.403 | 0.714
10 | MKTSPRRPLILKRRRLPLPVQNAPSETSEEEPKRSPAQQESNQAEASKEVAESNSCKFPAGIKIINHPTMPNTQVVAIPNNANIHSIITALTAKGKESGSSGPNKFILISCGGAPTQPPGLRPQTQTSYDAKRTEVTLETLGPKPAARDVNLPRPPGALCEQKRETCADGEAAGCTINNSLSNIQWLRKMSSDGLGSRSIKQEMEEKENCHLEQRQVKVEEPSRPSASWQNSVSERPPYSYMAMIQFAINSTERKRMTLKDIYTWIEDHFPYFKHIAKPGWKNSIRHNLSLHDMFVRETSANGKVSFWTIHPSANRYLTLDQVFKPLDPGSPQLPEHLESQQKRPNPELRRNMTIKTELPLGARRKMKPLLPRVSSYLVPIQFPVNQSLVLQPSVKVPLPLAASLMSSELARHSKRVRIAPKVLLAEEGIAPLSSAGPGKEEKLLFGEGFSPLLPVQTIKEEEIQPGEEMPHLARPIKVESPPLEEWPSPAPSFKEESSHSWEDSSQSPTPRPKKSYSGLRSPTRCVSEMLVIQHRERRERSRSRRKQHLLPPCVDEPELLFSEGPSTSRWAAELPFPADSSDPASQLSYSQEVGGPFKTPIKETLPISSTPSKSVLPRTPESWRLTPPAKVGGLDFSPVQTSQGASDPLPDPLGLMDLSTTPLQSAPPLESPQRLLSSEPLDLISVPFGNSSPSDIDVPKPGSPEPQVSGLAANRSLTEGLVLDTMNDSLSKILLDISFPGLDEDPLGPDNINWSQFIPELQ [FOXM1] | 0.114 | -0.0969
